Assay results published in patent US20020192640A1 (Boehringer Ingelheim, published 2002).

T1: 4K-6H-NS2/3 (904-1206)st-4K (Hepatitis C virus genotype 1b)
T1 chain: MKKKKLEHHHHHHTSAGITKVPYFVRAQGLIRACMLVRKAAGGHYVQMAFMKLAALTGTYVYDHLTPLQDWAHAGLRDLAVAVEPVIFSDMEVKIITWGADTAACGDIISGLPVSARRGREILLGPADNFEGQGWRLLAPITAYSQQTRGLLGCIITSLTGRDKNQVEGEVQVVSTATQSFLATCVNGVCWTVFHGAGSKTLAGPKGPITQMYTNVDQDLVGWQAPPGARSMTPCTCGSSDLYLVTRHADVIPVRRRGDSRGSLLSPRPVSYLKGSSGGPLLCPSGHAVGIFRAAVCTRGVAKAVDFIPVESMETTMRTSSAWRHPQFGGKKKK

B1: Peptide 2, SFEGQGWRLL (peptide)
peptide: SFEGQGWRLL
B2: Peptide 1, SFEGQGWRLL-APITAYSQQT (peptide)
peptide: SFEGQGWRLLAPITAYSQQT
B3: Peptide 5, APITAY (peptide)
peptide: APITAY
B4: Peptide 4, KGWRLL-APITAY (peptide)
peptide: KGWRLLAPITAY
B5: Peptide 3, APITAYSQQT (peptide)
peptide: APITAYSQQT

Target: T1, 4K-6H-NS2/3 (904-1206)st-4K
Assay: cell-based or functional assay

| Binder | IC50, inhibition of NS2/3 autocleavage |
| --- | --- |
| B1 | 90 µM |
| B2 | 270 µM |
| B3 | 1000 µM |
| B4 | 630 µM |
| B5 | > 1000 µM |
